# Data published in publication PMC5626478, “LARP4 mRNA codon-tRNA match contributes to LARP4 activity for ribosomal protein mRNA poly(A) tail length protection”.
# Target: LARP4-NTD (1-286) (human, UniProt Q71RC2 1-286)
# Experiment: EMSA; EMSA as described in Yang et al. 2011; buffer, salt, pH and temperature not given; protein in uM
# Details: protein: recombinant
# Sequence of LARP4-NTD (1-286) (Q71RC2 1-286): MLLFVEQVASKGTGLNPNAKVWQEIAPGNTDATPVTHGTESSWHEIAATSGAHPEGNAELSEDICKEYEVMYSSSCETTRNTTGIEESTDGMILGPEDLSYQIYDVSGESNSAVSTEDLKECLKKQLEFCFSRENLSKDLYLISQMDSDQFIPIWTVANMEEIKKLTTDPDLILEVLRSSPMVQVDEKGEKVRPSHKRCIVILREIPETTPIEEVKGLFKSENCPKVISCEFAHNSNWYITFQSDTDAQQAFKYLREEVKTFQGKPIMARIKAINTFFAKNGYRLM
binder,measurement,value
AAAAAAAAAAAAAAA (ssRNA) [A15 3'-OH],binding result,binds
